This note sets out measurements from PMC3714218 (Current biology : CB, 2013).

Assay [1] concerns the target T1, yeast Arp2/3 complex (yeast, UniProt P32381 1-391; P47117 1-449; P38328 1-384; P53731 1-342; Q05933 1-178; P33204 …). As to the kind of experiment: fluorescence polarisation.
For assay [2], the target named is T1, yeast Arp2/3 complex. Kind of assay: AUC.
Assay [3] deals with Arp3 (subunit of yeast Arp2/3 complex) (yeast, UniProt P47117 1-449). Kind of assay: cross-linking.
The target in assay [4] is ArpC1/Arc40 (subunit of yeast Arp2/3 complex) (yeast, UniProt P38328 1-384). Kind of assay: cross-linking.
Chain of ArpC1/Arc40 (subunit of yeast Arp2/3 complex) (P38328 whole entry, one chain of several): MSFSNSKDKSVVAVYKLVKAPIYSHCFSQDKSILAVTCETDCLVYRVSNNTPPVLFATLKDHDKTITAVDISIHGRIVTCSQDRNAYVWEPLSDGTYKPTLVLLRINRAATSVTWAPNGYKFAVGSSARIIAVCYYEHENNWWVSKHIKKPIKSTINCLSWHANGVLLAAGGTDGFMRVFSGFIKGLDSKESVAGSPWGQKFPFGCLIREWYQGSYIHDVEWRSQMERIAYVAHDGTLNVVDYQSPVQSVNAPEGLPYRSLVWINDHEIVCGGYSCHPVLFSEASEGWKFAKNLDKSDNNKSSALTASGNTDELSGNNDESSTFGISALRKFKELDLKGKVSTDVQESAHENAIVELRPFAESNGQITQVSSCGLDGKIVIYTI
For assay [5], the target named is T1, yeast Arp2/3 complex. Kind of assay: fluorescence polarisation. This is another data set of the same source.

Read-outs that look alike come from different tables or passages of the source.

Chain of Arp3 (subunit of yeast Arp2/3 complex) (P47117 whole entry, one chain of several): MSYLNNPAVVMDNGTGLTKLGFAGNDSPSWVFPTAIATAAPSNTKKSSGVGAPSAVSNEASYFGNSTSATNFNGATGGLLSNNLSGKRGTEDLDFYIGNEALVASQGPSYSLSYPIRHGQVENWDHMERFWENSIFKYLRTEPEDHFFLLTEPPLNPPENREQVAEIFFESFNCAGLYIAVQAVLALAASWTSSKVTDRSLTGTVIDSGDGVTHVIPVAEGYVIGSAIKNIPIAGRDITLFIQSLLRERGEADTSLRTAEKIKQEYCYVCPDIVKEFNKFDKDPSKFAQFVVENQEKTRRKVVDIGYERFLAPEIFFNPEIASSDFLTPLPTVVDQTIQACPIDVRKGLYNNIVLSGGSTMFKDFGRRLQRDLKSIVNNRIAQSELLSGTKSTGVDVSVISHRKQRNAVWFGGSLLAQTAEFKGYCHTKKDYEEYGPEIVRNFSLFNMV

B1: Gmf1-GFP (natural protein, S. cerevisiae, UniProt Q12156 1-149, looked up)
chain: MSNLYKIGTETRNKIKKFRTSTARTDSIKALSIKIEPKPSYEIIVDEDEQEELDEIEDLSELAEILPDNSPRFVLTAYPTTTKDGFKQTPLVLVYWKPMTVVSQEWKMLYAGALEMIREECGTFKLIEVSSGLEDDSDVEELREQLENC
Take B1: the dissociation constant (Kd) in assay [1] is 13 ± 2 nM. In assay [2], the “KD of the first binding site” value was less than 30 nM, the “KD of the second binding site” value was approximately 2000 nM and the “stoichiometry N” value is ~2 Gmf1-GFP per Arp2/3 complex.

B2: wild-type Gmf1 (untagged) (natural protein, S. cerevisiae, UniProt Q12156 1-149, looked up)
chain: MSNLYKIGTETRNKIKKFRTSTARTDSIKALSIKIEPKPSYEIIVDEDEQEELDEIEDLSELAEILPDNSPRFVLTAYPTTTKDGFKQTPLVLVYWKPMTVVSQEWKMLYAGALEMIREECGTFKLIEVSSGLEDDSDVEELREQLENC
With B2, the binding result in assay [3] and in assay [4] was “binds” each time. This molecule had a Kd in assay [5] of 10 ± 3 nM.
